Test results reported in patent US20170152308A1 (Biogen, published 2017).
Where two headings read alike, the source gives them in different places. Blank lines part the entries; values can stand above or below the binder they belong to.

Columns and labels:
[1] = biological target: T1, His-huTDP-43 domain I (amino acid residues 2-106) (human); test: Western blot
T1 construct: Amino terminal His-tagged fragment, E. coli; also called N-terminal domain
T1 chain: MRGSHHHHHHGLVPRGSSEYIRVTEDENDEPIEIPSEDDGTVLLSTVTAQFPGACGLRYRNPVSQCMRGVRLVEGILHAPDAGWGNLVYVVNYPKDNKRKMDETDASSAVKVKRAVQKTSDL
Description: (§1) Non-specific binding sites were blocked for 1 hr. at room temperature with PBST containing 2% BSA (Sigma, Buchs, Switzerland). Blots were incubated overnight with primary antibodies (10 nM) followed by either a donkey anti-human IgGγ-specific secondary antibody conjugated with HRP (Jackson ImmunoResearch, USA) or a goat-anti mouse IgG (H+L)-specific secondary antibody conjugated with HRP (Jackson ImmunoResearch, USA). Blots were developed using ECL and ImageQuant 350 detection (GE Healthcare, Otelfingen, Switzerland).
(§2) Commercially available TDP-43 specific antibody TARDBP (M01), clone 2E2-D3 (Abnova, Taiwan) was used as positive control for human TDP-43 detection whereas, an anti-human IgG Fcγ-specific antibody was used as a negative control. Binding of the human-derived antibodies to specific TDP-43 domains was determined by Western Blot analysis.

[2] = biological target: T2, His-huTDP-43 domain II (amino acid residues 99-204) (human); test: Western blot
T2 construct: Amino terminal His-tagged fragment, E. coli
T2 chain: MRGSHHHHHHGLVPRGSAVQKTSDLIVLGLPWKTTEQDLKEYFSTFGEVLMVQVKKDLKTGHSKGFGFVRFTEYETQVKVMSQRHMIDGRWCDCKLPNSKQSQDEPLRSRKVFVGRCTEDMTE
Description: as §1, §2

[3] = biological target: T3, His-huTDP-43 domain III (amino acid residues 183-273) (human); test: Western blot
T3 construct: Amino terminal His-tagged fragment, E. coli
T3 chain: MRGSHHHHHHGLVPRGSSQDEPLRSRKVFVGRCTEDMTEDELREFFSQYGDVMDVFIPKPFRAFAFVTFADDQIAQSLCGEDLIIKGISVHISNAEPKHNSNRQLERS
Description: as §1, §2

[4] = biological target: T4, His-huTDP-43 domain IV (amino acid residues 258-414) (human, UniProt Q13148 258-414); test: Western blot
T4 construct: Amino terminal His-tagged fragment, E. coli, solubilized in 8 M urea; also called Glycine-rich domain
Description: as §1, §2

[5] = biological target: T5, recombinant full-length His-tagged human TDP-43 (2-414) (human, UniProt Q13148 2-414); test: direct ELISA, coated antigen
T5 construct: Amino terminal His tag, made in E. coli, purified in 8 M urea; also called full length TDP-43; full-length TDP-43
Description: (§3) The half maximal effective concentration (EC₅₀) of the human-derived TDP-43-specific antibodies for human TDP-43 and their target target-specificity was determined substantially as described in Example 2 above. Briefly, 96 well microplates (Corning) were coated with recombinant full length TDP-43 (Biogen Idec, USA), Escherichia coli extract and BSA (Sigma, Buchs, Switzerland), diluted to a concentration of 5 μg/ml in carbonate ELISA coating buffer (pH 9.6) overnight at 4° C. […] Non-specific binding sites were blocked for 1 hr. at room temperature with PBS containing 2% BSA (Sigma, Buchs, Switzerland). Human TDP-43-specific antibodies were diluted to the indicated concentrations and incubated 1 hr. at room temperature. Binding was determined using a donkey anti-human IgGγ-specific secondary antibody conjugated with HRP (Jackson ImmunoResearch, USA), followed by measurement of HRP activity in a standard colorimetric assay. EC₅₀ values were estimated by a non-linear regression using GraphPad Prism software (San Diego, USA).

[6] = biological target: T6, TDP-43 in human FTLD-U (and ALS) patient tissue sections (human, UniProt Q13148 1-414, limits assumed); test: immunohistochemistry, FTLD-U case hippocampus
T6 construct: Target of immunohistochemistry; the forms present are not defined; also called pathologic TDP-43; cytoplasmic, nuclear, neuritic TDP-43 in FTLD-U case tissue

[7] = biological target: T7, 6xHis-SUMO-TDP-43 (1-414), properly folded full length (human, UniProt Q13148 1-414); test: capture ELISA, antigen held by anti-6xHis antibody
T7 construct: Purified with KSCN and arginine, monomeric; captured on the plate by an anti-6xHis antibody; also called folded full-length TDP-43; 6xHis/SUMO tagged full length TDP-43; not shown: N-terminal 6xHis and SUMO tags from a modified pET19-b vector
Description: (§4) Non-specific binding sites were blocked for 1 hr at RT with PBS containing 1% BSA (Sigma) and 0.05% Tween-20 (Fisher Scientific). 6×His-SUMO-TDP43 proteins at a concentration of 1.7 μM were allowed to bind to antibody-coated plates for 1 hr at RT in PBS buffer containing 1% BSA, 300 mM arginine and 0.1% PEG 5000, pH 7.5. Plates were incubated for 1 hr at RT with human antibodies of present invention, titrated in a three-fold dilution series, followed by HRP conjugated anti-human IgG Fc γ (Jackson ImmunoResearch) in PBST containing 1% BSA. HRP activity was measured in a standard colorimetric assay. EC₅₀ values were calculated using a four-parameter logistic curve fit on Softmax pro software (Molecular Devices).
(§5) We measured the binding affinity of the human-derived TDP-43 specific antibodies provided herein to properly folded 6×His/SUMO tagged TDP-43 using a capture ELISA in which native TDP-43 was immobilized without direct adsorption on the surface of the ELISA plate. This was achieved by immobilizing an anti 6×His antibody which then captured native TDP-43. […] After this immobilization step, binding by human antibodies was tested in regular buffers without interference of TDP-43 aggregation.

[8] = biological target: T2, His-huTDP-43 domain II (amino acid …); test: direct ELISA, coated antigen
[9] = biological target: T8, 6xHis-SUMO-TDP-43 (220-414) (human, UniProt Q13148 220-414); test: capture ELISA, antigen held by anti-6xHis antibody
T8 construct: Captured on the plate by an anti-6xHis antibody; also called 6xHis/SUMO tagged truncated TDP-43; not shown: N-terminal 6xHis and SUMO tags from a modified pET19-b vector
Description: as §4, §5

[10] = biological target: T1, His-huTDP-43 domain I (amino acid …); test: direct ELISA, TDP-43 fragments coated at 6.6 ug/ml, OD 450
Description: (§6) Non-specific binding sites were blocked for 1 hr. at room temperature with PBST containing 2% BSA (Sigma, Buchs, Switzerland). Antibodies were incubated 1 hr. at room temperature. Binding was determined using either a donkey anti-human IgGγ-specific antibody conjugated with HRP (Jackson ImmunoResearch, USA) or a goat-anti mouse IgG (H+L)-specific secondary antibody conjugated with HRP (Jackson ImmunoResearch, USA)., followed by measurement of HRP activity in a standard colorimetric assay.

[11] = biological target: T3, His-huTDP-43 domain III (amino acid …); test: as above
Description: as §6

[12] = biological target: T4, His-huTDP-43 domain IV (amino acid …); test: as above
Description: as §6

[13] = biological target: T3, His-huTDP-43 domain III (amino acid …); test: Western blot, 300 ng recombinant protein per lane, primary antibody 10 nM
Description: as §1

[14] = biological target: T4, His-huTDP-43 domain IV (amino acid …); test: as above
Description: as §1

[15] = biological target: T2, His-huTDP-43 domain II (amino acid …); test: direct ELISA, coated antigen; direct ELISA, domain coated at 6.6 ug/ml (Example 7, FIG. 5H)
Description: as §6
Binding of the human-derived antibodies was determined by direct ELISA.

[16] = biological target: T5, recombinant full-length His-tagged …; test: direct ELISA, coated antigen; remark: listed apart in the source
Description: as §3

[17] = biological target: T3, His-huTDP-43 domain III (amino acid …); test: direct ELISA, coated antigen

T8 sequence (Q13148 220-414): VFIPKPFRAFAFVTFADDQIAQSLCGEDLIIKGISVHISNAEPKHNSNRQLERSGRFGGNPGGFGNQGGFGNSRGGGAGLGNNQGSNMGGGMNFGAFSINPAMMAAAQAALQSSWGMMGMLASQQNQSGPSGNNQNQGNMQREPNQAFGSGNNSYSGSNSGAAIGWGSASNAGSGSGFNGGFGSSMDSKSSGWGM
T7 sequence (Q13148 whole entry): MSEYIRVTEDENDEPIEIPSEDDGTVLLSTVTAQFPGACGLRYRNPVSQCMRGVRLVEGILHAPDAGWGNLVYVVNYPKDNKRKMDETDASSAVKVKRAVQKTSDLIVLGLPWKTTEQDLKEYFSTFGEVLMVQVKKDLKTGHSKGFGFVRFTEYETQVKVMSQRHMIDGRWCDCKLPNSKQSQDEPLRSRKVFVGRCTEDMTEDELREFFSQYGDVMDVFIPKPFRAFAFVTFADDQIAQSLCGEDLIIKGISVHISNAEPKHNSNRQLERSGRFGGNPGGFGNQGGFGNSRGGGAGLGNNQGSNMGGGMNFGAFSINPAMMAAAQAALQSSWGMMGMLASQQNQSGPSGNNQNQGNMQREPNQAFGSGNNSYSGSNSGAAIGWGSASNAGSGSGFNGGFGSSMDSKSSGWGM
T4 sequence (Q13148 other isoform, or with tags, fused parts or gaps limits assumed): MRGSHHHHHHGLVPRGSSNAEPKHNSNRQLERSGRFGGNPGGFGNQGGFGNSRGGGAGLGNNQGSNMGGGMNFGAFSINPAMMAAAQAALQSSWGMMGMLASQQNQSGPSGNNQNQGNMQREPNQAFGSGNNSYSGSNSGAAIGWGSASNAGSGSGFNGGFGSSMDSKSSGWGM
T6 sequence (Q13148 whole entry): as the sequence (Q13148 whole entry) above

B1: NI-205.20A1 (antibody, V domains shown)
VH: EVQLVESGGGLVQPGGSLRLSCAASGFTFSSYRMNWVRQAPGKGLEWVSYISTSSSTIYYADSVKGRFTISRDNAKNSLYLQMNSLRAEDTAVYYCARAFDYWGQGTLVTVSS
VL: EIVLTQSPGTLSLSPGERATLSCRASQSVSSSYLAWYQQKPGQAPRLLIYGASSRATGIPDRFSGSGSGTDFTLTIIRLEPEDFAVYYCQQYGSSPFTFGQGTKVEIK
notes: Human-derived
- binding result [1]: no binding (tested: 10 nM)
- binding result [2]: no binding (tested: 10 nM)
- binding result [3]: no binding (tested: 10 nM)
- binding result [4]: no binding (tested: 10 nM)
- binding result [5]: no binding
- binding result [6]: no binding (tested: 50 nM)
- binding result [7]: no binding

B3: NI-205.58E11 (antibody, human IgG1, V domains shown)
VH: EVQLLESGGGLVQPGGSLRLSCAASGFTFSSYSMSWVRQAPGKGLEWVATVGYGGTIYYADSVKGRFTISRDNSKNTLYLEMNSLRAEATAVYYCAKANYGGNRFGLDVWGQGTTVTVSS
VL: QSALTQPPSASGSPGQSVTISCTGTSSDVGGYNYVSWYQHQPGKAPKLMIYEVSKRPSGVPDRFSGSKSGNTASLTVSGLQAEDEADYYCSSYAGSNNLGVFGTGTEVTVL
notes: Human-derived
- binding result [5]: no binding
- binding result [6]: no binding (tested: 50 nM)
- binding result [7]: no binding

B6: NI-205.68G5 (antibody, human IgG1, V domains shown)
VH: QVQLVESGGGVVQPGRSLRLSCAASGFTFSSYGMHWVRQAPGKGLEWVAIIYYDSSQRYYADSVKGRFTISRDNSKNALYLQMNSLRAEDTALYYCARDLPFHYHRSASFAPSDTWGQGTLVTVSS
VL: EIVLTQSPGTLSLSPGERATLSCRASQAVTNNYLAWYQQKPGQAPRLLVYAASSRATGIPDRFYGSGSGADFTLTISRLEPEDFAVYYCQQYGTSPITFGQGTRLEIK
notes: Human-derived
- binding result [1]: no binding (tested: 10 nM)
- binding result [2]: no binding (tested: 10 nM)
- binding result [3]: no binding (tested: 10 nM)
- binding result [4]: no binding (tested: 10 nM)
- EC50 [16]: > 100 nM
- EC50 [5]: > 100 nM

More lines, now with the values ahead:

- binding result [8]: binds
- EC50 [5]: 1 nM
- EC50 [7]: > 98 nM
- binding result [9]: no binding
- binding result [10]: no binding
- binding result [11]: no binding
- binding result [12]: no binding
B2: NI-205.1A9 (antibody, human IgG1, V domains shown)
VH: QVQLVQSGSELKKPGASVKVSCKASGYTFTSYAMNWVRQAPGQGLEWMGWINTNTGNPTYAQGFTGRFVFSLDTSVSTAYLQISSLKAEDTAVYYCARDRIDGSSWSSWFDPWGQGTLVTVSS
VL: QSVLTQPPSVSGAPGQRVTISCTGSSSNIGAGYDVHWYQQLPGTAPKLLIYGNSNRPSGVPDRFSGSKSGTSASLAITGLQAEDEADYYCQSFDSSLSSSVFGGGTKLTVL
notes: Human-derived

- binding result [8]: binds
- EC50 [5]: 11 nM
- EC50 [7]: 21.1 nM
- binding result [9]: no binding
- binding result [10]: no binding
- binding result [13]: no binding (tested: 10 nM)
- binding result [14]: no binding (tested: 10 nM)
B4: NI-205.31C11 (antibody, human IgG1, V domains shown)
VH: QVQLVESGGGVVQPGRSLRLSCVASGFTFDNYGMHWVRQAPGKGLEWLAVISYGGDHQFYGDSVKDRFTISRDNSKNTAYLQMHSLRPDDTAVYYCATGVTPDFWGQGTLVTVSS
VL: DVVMTQSPLSLPVTLGQPASISCRSSQSLVHSDGNTYLNWFQQRPGQSPRRLIYKVSHRDSGVPDRFSGSGSGTDFTLKISRVEAEDVGVYYCLQGTHWPPFTFGQGTKLEIK
notes: Human-derived

- EC50 [5]: 8.2 nM
- EC50 [7]: > 120 nM
- binding result [9]: no binding
- binding result [10]: no binding
- binding result [11]: no binding
- binding result [12]: no binding
- binding result [15]: binds
B5: NI-205.38H2 (antibody, human IgG1, V domains shown)
VH: EVQLVESGGDLVQPGGSLRLSCTASGFNLGDYWMHWVRQVPGKGLVWVSRISSDGASVSYADFVEGRFTISRGNARNTLFLELNSLRLDDTAVYYCAMGVVWGQGTLVTVSS
VL: SYELTQPPSVSVSPGQTATISCSGDALPKRYAYWYKQKSGQVPVLIIYEDNKRPSGIPARFSGSSSGTMATLTITGAQVDDEADYYCYSSDNSDTYSVFGGGTKLTVL
notes: Human-derived

- binding result [17]: binds
- EC50 [5]: 2.6 nM
- EC50 [7]: 46 nM
- EC50 [9]: 20 nM
- binding result [10]: no binding
B7: NI-205.98H6 (antibody, human IgG1, V domains shown)
VH: EVQLLESGGALVQPGGSLRLSCAASGLTFSRHAFSWVRQAPGKGLEWVAISSGSGGNTYYAASVKGRFTISRDESKNTLYLQMNSLRVEDTALYYCAKEVLEWSLLSRYMDVWGKGTTVTVSS
VL: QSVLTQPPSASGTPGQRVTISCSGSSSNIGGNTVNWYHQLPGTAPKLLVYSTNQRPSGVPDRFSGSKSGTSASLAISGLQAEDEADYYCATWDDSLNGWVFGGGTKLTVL
notes: Human-derived
